# Measured values published in US20210388087A1 (Chugai, published 2021).
# Changes are numbered by the printed parent chain. Names may count otherwise.
# B1: dBBDu183H P61Y / dBBDu072L (antibody, name in Kabat numbering, V domains shown)
# VH: QVQLVESGGGLVQPGRSLRLSCAASGFTFSNAWMHWVRQAPGKGLEWVAQIKDKGNAYAAYYAYSVKGRFTISRDDSKNSIYLQMNSLKTEDTAVYYCHYVHYASASTVLPAFGVDAWGQGTTVTVSS
# VL: DIVMTQSPLSLPVTPGEPASISCQASQELVHMNRNTYLHWYQQKPGQAPRLLIYKVSNRFPGVPDRFSGSGSGTDFTLKISRVEAEDVGVYYCAQGTSVPFTFGQGTKLEIK
# notes: as m1, one VH change
# B2: dBBDu183H P100eT / dBBDu072L (antibody, name in Kabat numbering, V domains shown)
# VH: B1 VH with Y64P, P111T
# VL: B1 VL
# notes: as m1, one VH change
# B3: dBBDu183H S62Y / dBBDu072L (antibody, name in Kabat numbering, V domains shown)
# VH: B1 VH with Y64P, S65Y
# VL: B1 VL
# notes: as m1, one VH change
# B4: dBBDu183H S62F / dBBDu072L (antibody, name in Kabat numbering, V domains shown)
# VH: B1 VH with Y64P, S65F
# VL: B1 VL
# notes: as m1, one VH change
# B5: dBBDu183H P100eS / dBBDu072L (antibody, name in Kabat numbering, V domains shown)
# VH: B1 VH with Y64P, P111S
# VL: B1 VL
# notes: as m1, one VH change
# B6: dBBDu183H V63H / dBBDu072L (antibody, name in Kabat numbering, V domains shown)
# VH: B1 VH with Y64P, V66H
# VL: B1 VL
# notes: as m1, one VH change
# B7: dBBDu183H P100eE / dBBDu072L (antibody, name in Kabat numbering, V domains shown)
# VH: B1 VH with Y64P, P111E
# VL: B1 VL
# notes: as m1, one VH change
# B8: dBBDu183H S99R / dBBDu072L (antibody, name in Kabat numbering, V domains shown)
# VH: B1 VH with Y64P, S105R
# VL: B1 VL
# notes: as m1, one VH change
# B9: dBBDu183H S62H / dBBDu072L (antibody, name in Kabat numbering, V domains shown)
# VH: B1 VH with Y64P, S65H
# VL: B1 VL
# notes: as m1, one VH change
# B10: dBBDu183H V100cE / dBBDu072L (antibody, name in Kabat numbering, V domains shown)
# VH: B1 VH with Y64P, V109E
# VL: B1 VL
# notes: as m1, one VH change
# B11: dBBDu183H S62K / dBBDu072L (antibody, name in Kabat numbering, V domains shown)
# VH: B1 VH with Y64P, S65K
# VL: B1 VL
# notes: as m1, one VH change
# B12: dBBDu183H S62N / dBBDu072L (antibody, name in Kabat numbering, V domains shown)
# VH: B1 VH with Y64P, S65N
# VL: B1 VL
# notes: as m1, one VH change
# B13: dBBDu183H S62G / dBBDu072L (antibody, name in Kabat numbering, V domains shown)
# VH: B1 VH with Y64P, S65G
# VL: B1 VL
# notes: as m1, one VH change
# B14: dBBDu183H S99Y / dBBDu072L (antibody, name in Kabat numbering, V domains shown)
# VH: B1 VH with Y64P, S105Y
# VL: B1 VL
# notes: as m1, one VH change
# B15: dBBDu183H P100eQ / dBBDu072L (antibody, name in Kabat numbering, V domains shown)
# VH: B1 VH with Y64P, P111Q
# VL: B1 VL
# notes: as m1, one VH change
# B16: dBBDu183H V63N / dBBDu072L (antibody, name in Kabat numbering, V domains shown)
# VH: B1 VH with Y64P, V66N
# VL: B1 VL
# notes: as m1, one VH change
# B17: dBBDu183H V63G / dBBDu072L (antibody, name in Kabat numbering, V domains shown)
# VH: B1 VH with Y64P, V66G
# VL: B1 VL
# notes: as m1, one VH change
# B18: dBBDu183H T100bQ / dBBDu072L (antibody, name in Kabat numbering, V domains shown)
# VH: B1 VH with Y64P, T108Q
# VL: B1 VL
# notes: as m1, one VH change
# B19: dBBDu183H P100eN / dBBDu072L (antibody, name in Kabat numbering, V domains shown)
# VH: B1 VH with Y64P, P111N
# VL: B1 VL
# notes: as m1, one VH change
# B20: dBBDu183H S99Q / dBBDu072L (antibody, name in Kabat numbering, V domains shown)
# VH: B1 VH with Y64P, S105Q
# VL: B1 VL
# notes: as m1, one VH change
# B21: dBBDu183H S62W / dBBDu072L (antibody, name in Kabat numbering, V domains shown)
# VH: B1 VH with Y64P, S65W
# VL: B1 VL
# notes: as m1, one VH change
# B22: dBBDu183H S62V / dBBDu072L (antibody, name in Kabat numbering, V domains shown)
# VH: B1 VH with Y64P, S65V
# VL: B1 VL
# notes: as m1, one VH change
# B23: dBBDu183H S99T / dBBDu072L (antibody, name in Kabat numbering, V domains shown)
# VH: B1 VH with Y64P, S105T
# VL: B1 VL
# notes: as m1, one VH change
# B24: dBBDu183H V63W / dBBDu072L (antibody, name in Kabat numbering, V domains shown)
# VH: B1 VH with Y64P, V66W
# VL: B1 VL
# notes: as m1, one VH change
# B25: dBBDu183H P100eR / dBBDu072L (antibody, name in Kabat numbering, V domains shown)
# VH: B1 VH with Y64P, P111R
# VL: B1 VL
# notes: as m1, one VH change
# B26: dBBDu183H V63S / dBBDu072L (antibody, name in Kabat numbering, V domains shown)
# VH: B1 VH with Y64P, V66S
# VL: B1 VL
# notes: as m1, one VH change
# B27: dBBDu183H S62E / dBBDu072L (antibody, name in Kabat numbering, V domains shown)
# VH: B1 VH with Y64P, S65E
# VL: B1 VL
# notes: as m1, one VH change
# B28: dBBDu183H V63R / dBBDu072L (antibody, name in Kabat numbering, V domains shown)
# VH: B1 VH with Y64P, V66R
# VL: B1 VL
# notes: as m1, one VH change
# B29: dBBDu183H T100bN / dBBDu072L (antibody, name in Kabat numbering, V domains shown)
# VH: B1 VH with Y64P, T108N
# VL: B1 VL
# notes: as m1, one VH change
# B30: dBBDu183H V63E / dBBDu072L (antibody, name in Kabat numbering, V domains shown)
# VH: B1 VH with Y64P, V66E
# VL: B1 VL
# notes: as m1, one VH change
# B31: dBBDu183H V63K / dBBDu072L (antibody, name in Kabat numbering, V domains shown)
# VH: B1 VH with Y64P, V66K
# VL: B1 VL
# notes: as m1, one VH change
# B32: dBBDu183H P100eK / dBBDu072L (antibody, name in Kabat numbering, V domains shown)
# VH: B1 VH with Y64P, P111K
# VL: B1 VL
# notes: as m1, one VH change
# B33: dBBDu183H S99G / dBBDu072L (antibody, name in Kabat numbering, V domains shown)
# VH: B1 VH with Y64P, S105G
# VL: B1 VL
# notes: as m1, one VH change
# B34: dBBDu183H S99K / dBBDu072L (antibody, name in Kabat numbering, V domains shown)
# VH: B1 VH with Y64P, S105K
# VL: B1 VL
# notes: as m1, one VH change
# B35: dBBDu183H V63Q / dBBDu072L (antibody, name in Kabat numbering, V domains shown)
# VH: B1 VH with Y64P, V66Q
# VL: B1 VL
# notes: as m1, one VH change
# B36: dBBDu183H V63D / dBBDu072L (antibody, name in Kabat numbering, V domains shown)
# VH: B1 VH with Y64P, V66D
# VL: B1 VL
# notes: as m1, one VH change
# B37: dBBDu183H P100eD / dBBDu072L (antibody, name in Kabat numbering, V domains shown)
# VH: B1 VH with Y64P, P111D
# VL: B1 VL
# notes: as m1, one VH change
# B38: dBBDu183H T100bS / dBBDu072L (antibody, name in Kabat numbering, V domains shown)
# VH: B1 VH with Y64P, T108S
# VL: B1 VL
# notes: as m1, one VH change
# B39: dBBDu183H S62Q / dBBDu072L (antibody, name in Kabat numbering, V domains shown)
# VH: B1 VH with Y64P, S65Q
# VL: B1 VL
# notes: as m1, one VH change
# B40: dBBDu183H S99H / dBBDu072L (antibody, name in Kabat numbering, V domains shown)
# VH: B1 VH with Y64P, S105H
# VL: B1 VL
# notes: as m1, one VH change
# B41: dBBDu183H S62D / dBBDu072L (antibody, name in Kabat numbering, V domains shown)
# VH: B1 VH with Y64P, S65D
# VL: B1 VL
# notes: as m1, one VH change
# B42: dBBDu183H V63F / dBBDu072L (antibody, name in Kabat numbering, V domains shown)
# VH: B1 VH with Y64P, V66F
# VL: B1 VL
# notes: as m1, one VH change
# B43: dBBDu183H S62R / dBBDu072L (antibody, name in Kabat numbering, V domains shown)
# VH: B1 VH with Y64P, S65R
# VL: B1 VL
# notes: as m1, one VH change
# B44: dBBDu183H S62T / dBBDu072L (antibody, name in Kabat numbering, V domains shown)
# VH: B1 VH with Y64P, S65T
# VL: B1 VL
# notes: as m1, one VH change
# B45: dBBDu183H P100eH / dBBDu072L (antibody, name in Kabat numbering, V domains shown)
# VH: B1 VH with Y64P, P111H
# VL: B1 VL
# notes: as m1, one VH change
# B46: dBBDu183H V63T / dBBDu072L (antibody, name in Kabat numbering, V domains shown)
# VH: B1 VH with Y64P, V66T
# VL: B1 VL
# notes: as m1, one VH change
# B47: dBBDu183H P100eG / dBBDu072L (antibody, name in Kabat numbering, V domains shown)
# VH: B1 VH with Y64P, P111G
# VL: B1 VL
# notes: as m1, one VH change
# Target: T1, Human CD137 ECD (human)
# T1 construct: also called 4-1BB
# Assay: SPR, vs parent H183/L072
# T1 sequence (chain, as listed by the source limits assumed): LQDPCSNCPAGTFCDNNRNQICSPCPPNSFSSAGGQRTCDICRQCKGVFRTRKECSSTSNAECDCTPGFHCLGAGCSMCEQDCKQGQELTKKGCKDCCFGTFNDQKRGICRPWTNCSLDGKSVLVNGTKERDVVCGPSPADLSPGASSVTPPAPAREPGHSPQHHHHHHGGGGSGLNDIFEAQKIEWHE
row,Binder,fold change of affinity
1,B1,0.7 fold
2,B2,0.2 fold
3,B3,0.7 fold
4,B4,0.5 fold
5,B5,0.4 fold
6,B6,1 fold
7,B7,0.8 fold
8,B8,1.1 fold
9,B9,0.9 fold
10,B10,0.5 fold
11,B11,0.9 fold
12,B12,0.9 fold
13,B13,1 fold
14,B14,0.5 fold
15,B15,0.4 fold
16,B16,0.9 fold
17,B17,1.3 fold
18,B18,0.3 fold
19,B19,0.2 fold
20,B20,0.6 fold
21,B21,0.8 fold
22,B22,0.9 fold
23,B23,0.6 fold
24,B24,1 fold

row,Binder,fold change of affinity
1,B25,0.3 fold
2,B26,0.9 fold
3,B27,0.8 fold
4,B28,1 fold
5,B29,0.1 fold
6,B30,0.9 fold
7,B31,0.8 fold
8,B32,0.3 fold
9,B33,1 fold
10,B34,1.2 fold
11,B35,1.3 fold
12,B36,0.9 fold
13,B37,0.3 fold
14,B38,1 fold
15,B39,1 fold
16,B40,1.5 fold
17,B41,0.9 fold
18,B42,0.9 fold
19,B43,1.1 fold
20,B44,1 fold
21,B45,0.1 fold
22,B46,0.9 fold
23,B47,0.4 fold
